Results from US20220281976A1 (Alector, published 2022).

T1: mouse CD33 Fc fusion protein (mouse, UniProt Q63994 18-240, limits assumed)
T1 construct: also called mCD33-Fc
T1 sequence: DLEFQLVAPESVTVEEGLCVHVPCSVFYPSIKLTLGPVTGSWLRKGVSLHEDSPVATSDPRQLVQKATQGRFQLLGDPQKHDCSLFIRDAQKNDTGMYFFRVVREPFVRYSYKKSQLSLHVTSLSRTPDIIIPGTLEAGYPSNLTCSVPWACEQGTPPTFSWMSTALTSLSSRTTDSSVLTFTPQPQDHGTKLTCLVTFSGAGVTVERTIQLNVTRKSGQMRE


Tests used:
[1] = biological target: T2, human CD33 (human, UniProt P20138 18-364); assay: cell-based or functional assay
[2] = biological target: T1, mouse CD33 Fc fusion protein; assay: ForteBio BLI or MSD-SET
[3] = biological target: T3, human CD33 Fc fusion protein (human, UniProt P20138 18-259); assay: ForteBio BLI or MSD-SET, IgG, avid;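 further: Anti-CD33 IgG affinity by BLI, IgG captured on AHQ sensors with antigen in solution and a one-to-one kinetic fit, or by MSD solution equilibrium titration with quadratic fit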
T3 construct: also called hCD33-Fc; human CD33/Fc chimera (R&D Systems)

[4] = biological target: T2, human CD33; assay: flow cytometry, human primary T cells;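 further: binding of anti-CD33 antibodies at 10 ug/ml to human primary T cells, 1 h on ice, detected with PE-labelled secondary antibody, read as flow cytometry MFI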
[5] = biological target: T2, human CD33; assay: flow cytometry, human primary monocytes; parameters: reference not given here;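 further: binding of anti-CD33 antibodies at 10 ug/ml to human primary monocytes, 1 h on ice, detected by PE-labelled secondary antibody, flow cytometry readout as mean fluorescence intensity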
[6] = biological target: T2, human CD33; assay: flow cytometry, human primary macrophages;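 further: binding of CD33 antibodies at 10 µg/ml to human primary macrophages, 1 h on ice, detected with PE-labelled secondary antibody by flow cytometry, reported as MFI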
Method: Initial characterization of CD33 antibodies involved determining their ability to bind CD33 expressed on a CHO cell line, on human primary monocytes, human primary macrophages, human primary dendritic cells, and on human primary T cells. Cells were harvested, plated at 10⁶/ml in a 96 well plate, and incubated in 100 ul PBS containing 2% FBS, 2 mM EDTA and 10 ug/ml Mab and Fc blocking reagent for 1 hour in ice. Cells were washed twice and incubated in 100 ul PBS containing 2% FBS, 2 mM EDTA and 5 ug/ml PE-conjugated secondary antibody for 30 minutes on ice. Cells were washed twice in cold PBS and analyze by flow cytometry on a BD FACS Canto. Data analysis and calculation of MFI values was performed with FlowJo (TreeStar) software version 10.0.7.

[7] = biological target: T2, human CD33; assay: flow cytometry, human primary dendritic cells;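 further: binding of anti-CD33 antibodies (10 ug/ml, 1 h on ice) to human primary dendritic cells, detected with a PE-labelled secondary antibody, reported as flow cytometry MFI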
[8] = biological target: T4, human monomeric His tagged CD33 protein (human, UniProt P20138 18-259); assay: ForteBio BLI or MSD-SET, IgG, monomeric antigen;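 further: BLI: antibodies captured on AHQ sensors, 100 nM antigen association 5 min, dissociation 5 min, 1:1 fit. MSD-SET: antigen fixed at 50 pM, antibody titrated, quadratic fit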
T4 construct: also called hCD33-His

[9] = biological target: T3, human CD33 Fc fusion protein; assay: RBC adhesion to plate-bound CD33-Fc; antibody 0.5 ug/ml;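 further: Plate-coated CD33-Fc preincubated 1 h with antibody, then red blood cells added for 1 h at room temperature, adherent cells lysed and quantified via peroxidase activity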
Method: Briefly, 5 ug/ml CD33-Fc was coated overnight at RT in 96 well Immunolon plates, then washed with PBS, blocked for one hour with binding buffer (PBS containing %0.25 BSA 1 mM CaCl₂). CD33 antibodies (0.5 ug/ml or 1.0 ug/ml) or Fabs (25 ug/ml) were bound for one hour at RT with gentle rocking. After removal of unbound antibody, red blood cells were added to each well at a concentration of 3.0×10⁶ cells per ml and incubated at RT for one hour. Unbound RBCs were then carefully washed off 3× with PBS, and water was added to each well for hypotonic lysis of bound RBCs. The plate was transferred to −80° C. for 10 minutes, followed by 37° C. for 15 minutes. Bound RBCs were detected by peroxidase activity, followed by 2N sulfuric acid to stop the reaction.

[10] = biological target: T3, human CD33 Fc fusion protein; assay: RBC adhesion to plate-bound CD33-Fc; antibody 1.0 ug/ml;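 further: red blood cells adhering to plate-coated CD33-Fc after 1 h antibody pretreatment, then 1 h at room temperature, bound cells read as peroxidase activity after lysis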

T2 sequence (P20138 18-364): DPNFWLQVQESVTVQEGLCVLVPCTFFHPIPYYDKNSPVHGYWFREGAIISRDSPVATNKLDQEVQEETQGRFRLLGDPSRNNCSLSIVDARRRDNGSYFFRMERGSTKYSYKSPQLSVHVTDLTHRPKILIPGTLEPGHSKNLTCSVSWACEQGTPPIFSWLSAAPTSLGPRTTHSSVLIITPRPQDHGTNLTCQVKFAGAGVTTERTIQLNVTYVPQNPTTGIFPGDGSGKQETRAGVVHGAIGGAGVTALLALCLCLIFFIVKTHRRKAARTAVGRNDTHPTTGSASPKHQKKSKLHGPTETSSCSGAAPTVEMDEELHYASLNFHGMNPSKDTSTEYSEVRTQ
T4 sequence (P20138 18-259 limits assumed): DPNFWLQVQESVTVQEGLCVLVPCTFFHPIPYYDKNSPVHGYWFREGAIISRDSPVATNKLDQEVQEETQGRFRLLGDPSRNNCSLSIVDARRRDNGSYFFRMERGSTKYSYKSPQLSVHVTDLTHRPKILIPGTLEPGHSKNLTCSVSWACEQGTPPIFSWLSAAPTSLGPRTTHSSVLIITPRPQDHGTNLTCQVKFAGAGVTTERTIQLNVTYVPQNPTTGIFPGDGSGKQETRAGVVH
T3 sequence (P20138 18-259 limits assumed): as above

Row | Binder | Percent CD33 Surface Expression, DC % CD33 [1] [%] | Percent CD33 Surface Expression, Monocyte % CD33 [1] [%] | binding result [2] | Kd [3] [nM] | T cell MFI [4] | Monocyte MFI [5] | Macrophage MFI [6] | DC MFI [7] | Kd [8] [nM] | Percent RBC Binding to CD33 [9] [%] | Percent RBC Binding to CD33 [10] [%] | Percent CD33 Surface Expression, Macrophage % CD33 [1] [%]
1 | C-62 (antibody, V domains shown, human IgG1) VH: not shown VL: EIVMTQSPATLSVSPGERATLSCRASQSVSSNLAWYQQKPGQAPRLLIYGASTRATGIPARFSGSGSGTEFTLTISSLQSEDFAVYYCQQFSNWPLTFGGGTKVEIK | 78.4 | 87.4 | no binding (tested: 100 nM) | 4.07 | 96.4 | 197 | 520 | 1660 | 23.6 | 95.7 | 84 | –
2 | C-37 (antibody, V domains shown, human IgG1) VH: QLQLQESGPGLVKPSETLSLTCTVSGGSISSSSYYWGWIRQPPGKGLEWIGSISYSGSTYYNPSLKSRVTISVDTSKNQFSLKLSSVTAADTAVYYCAREHRAADAGSNVWGQGTMVTVSS VL: not shown | 19 | 32.2 | no binding (tested: 100 nM) | 0.409 | 213 | 203 | 952 | 1840 | 2.72 | 11 | 5.6 | 55.3
3 | C-67 (antibody, V domains shown, human IgG1) VH: QLQLQESGPGLVKPSETLSLTCTVSGGSISSSSYYWGWIRQPPGKGLEWIGSIYYSGSTYYNPSLKSRVTISVDTSKNQFSLKLSSVTAADTAVYYCAREVSGTRHGMDVWGQGTTVTVSS VL: not shown | 17 | 23.8 | no binding (tested: 100 nM) | 1.19 | 209 | 151 | 831 | 1420 | 5.33 | 22.9 | 10.7 | 51
4 | C-38 (antibody, V domains shown, human IgG1) VH: QLQLQESGPGLVKPSETLSLTCTVSGGSISSSSYYWGWIRQPPGKGLEWIGSIYYSGSTYYNPSLKSRVTISVDTSKNQFSLKLSSVTAADTAVYYCAREATAAADHPGMDVWGQGTTVTVSS VL: DIQMTQSPSSLSASVGDRVTITCQASQDITNYLNWYQQKPGKAPKLLIYDASNLETGVPSRFSGSRSGTDFTFTISSLQPEDIATYYCQQYHDFPTFGGGTKVEIK | 17.9 | 27.6 | no binding (tested: 100 nM) | 1.28 | 267 | 166 | 904 | 1740 | 5.25 | 15.6 | 10.3 | 49.1
5 | C-39 (antibody, V domains shown, human IgG1) VH: QLQLQESGPGLVKPSETLSLTCTVSGGSISSSSYYWGWIRQPPGKGLEWIGSIYYSGSTYYNPSLKSRVTISVDTSKNQFSLKLSSVTAADTAVYYCAREGVRGMDVWGQGTTVTVSS VL: EIVLTQSPGTLSLSPGERATLSCRASQSVSSSYLAWYQQKPGQAPRLLIYGASSRATGIPDRFSGSGSGTDFTLTISRLEPEDFAVYYCQQFAFLPPTFGGGTKVEIK | 22.8 | 27.2 | no binding (tested: 100 nM) | 2.06 | 1210 | 181 | 802 | 2000 | 9.97 | 12.5 | 5.11 | 46.5
6 | C-40 (antibody, V domains shown, human IgG1) VH: EVQLVESGGGLVQPGGSLRLSCAASGFTFSSYWMSWVRQAPGKGLEWVANIKQDGSEKYYVDSVKGRFTISRDNAKNSLYLQMNSLRAEDTAVYYCAREGGYVGHGMDVWGQGTTVTVSS VL: not shown | 17.8 | 24.2 | no binding (tested: 100 nM) | 1.86 | 210 | 76 | 663 | 1470 | 10.6 | 19.7 | 12.1 | 35.2
7 | C-41 (antibody, V domains shown, human IgG1) VH: QLQLQESGPGLVKPSETLSLTCTVSGGSISSSSYYWGWIRQPPGKGLEWIGSISYSGSTYYNPSLKSRVTISVDTSKNQFSLKLSSVTAADTAVYYCAREGGKGMDVWGQGTLVTVSS VL: EIVLTQSPGTLSLSPGERATLSCRASQSVSSSFLAWYQQKPGQAPRLLIYGASSRATGIPDRFSGSGSGTDFTLTISRLEPEDFAVYYCQQFGDLPTFGGGTKVEIK | 18.6 | 40.8 | no binding (tested: 100 nM) | 1.06 | 208 | 180 | 945 | 1810 | 4.37 | 10.7 | 8.19 | 39.5
8 | C-43 (antibody, V domains shown, human IgG1) VH: QVQLVQSGAEVKKPGASVKVSCKASGYTFTSYYMHWVRQAPGQGLEWMGVINPSGGSTSYAQKFQGRVTMTRDTSTSTVYMELSSLRSEDTAVYYCAREEAVAADLGVDVWGQGTTVTVSS VL: not shown | 24.5 | 34.9 | no binding (tested: 100 nM) | 2.06 | 192 | 151 | 908 | 1500 | 9.04 | 13.8 | 8.99 | 42.5
9 | C-44 (antibody, V domains shown, human IgG1) VH: QLQLQESGPGLVKPSETLSLTCTVSGGSISSSSYAWGWIRQPPGKGLEWIGSIYYSGSTYYNPSLKSRVTISVDTSKNQFSLKLSSVTAADTAVYYCAREGYVAAYGMDVWGQGTTVTVSS VL: DIQMTQSPSSLSASVGDRVTITCRASQSISSYLNWYQQKPGKAPKLLIYAASSLQSGVPSRFSGSGSGTDFTLTISSLQPEDFATYYCQQAYYPPWTFGGGTKVEIK | 14.7 | 24.8 | no binding (tested: 100 nM) | 0.612 | 310 | 161 | 892 | 1520 | 2.62 | 13.3 | 10.5 | 57.3
10 | C-45 (antibody, V domains shown, human IgG1) VH: not shown VL: DIQMTQSPSSVSASVGDRVTITCRASQGISSWLAWYQQKPGKAPKLLIYAASSLQSGVPSRFSGSGSGTDFTLTISSLQPEDFATYYCQQAYSFPTFGGGTKVEIK | 65.7 | 78.2 | no binding (tested: 100 nM) | 2.25 | 55.4 | 182 | 1010 | 1150 | 12.8 | 114 | 110 | –
11 | C-5 (antibody, V domains shown, human IgG1) VH: not shown VL: EIVLTQSPGTLSLSPGERATLSCRASQSVSSSFLAWYQQKPGQAPRLLIYGASSRATGIPDRFSGSGSGTDFTLTISRLEPEDFAVYYCQQVSSFPPTFGGGTKVEIK | 43.1 | 54.7 | no binding (tested: 100 nM) | 3.17 | 357 | 177 | 866 | 1460 | 15.6 | 19.8 | 13.8 | 73.3
12 | C-56 (antibody, V domains shown, human IgG1) VH: EVQLVESGGGLVQPGGSLRLSCAASGFTFSSYWMSWVRQAPGKGLEWVANIKQDGSEKYYVDSVKGRFTISRDNAKNSLYLQMNSLRAEDTAVYYCARDYGSVAGTPFDYWGQGTLVTVSS VL: DIQMTQSPSSLSASVGDRVTITCRASQSISSYLNWYQQKPGKAPKLLIYAASSLQSGVPSRFSGSGSGTDFTLTISSLQPEDFATYYCQQVLHTPLTFGGGTKVEIK | 19.7 | 41.6 | no binding (tested: 100 nM) | 1.1 | 230 | 136 | 846 | 1560 | 4.98 | 15.7 | 10.5 | 40
